Test results as given in paper PMC10746170.

Tested on: T1, His6-GacA (Acinetobacter baumannii (strain ATCC 17978?)), ORF:4711fff2
T1 sequence: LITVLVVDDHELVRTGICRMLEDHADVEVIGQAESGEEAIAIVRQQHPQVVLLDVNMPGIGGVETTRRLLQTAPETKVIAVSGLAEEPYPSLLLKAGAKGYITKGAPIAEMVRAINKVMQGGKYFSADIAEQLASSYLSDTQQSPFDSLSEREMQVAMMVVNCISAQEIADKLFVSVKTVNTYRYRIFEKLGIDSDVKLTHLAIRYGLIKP
Assay: EMSA
Details: 20 mM Tris pH 8.0, 150 mM NaCl, 10 mM EDTA, 100 ug/mL BSA, 20 mM acetyl phosphate, 10% glycerin, 1 mM DTT; ~10 nM probe; 20 min, room temperature; 6% native …

Row | Sequence | binding
1 | CTCGTCATTATTAAGGCACGAGCTTGAATTAAACTGCACATCTAGTGTCAGTTGCTTATAGTGGCTATTGTCTTAGTATTTTTAAAAATCTGCAATATCTTTTTTTTAAAATTACCTAAGAAAATAAAAATATTTCAGAAAACTTTTTAGTTTTAAAAAATTTATAGTTTCTAATTATAAATAGCTTGCACAAAAAAACCAGCTTTAAAGCTGGTCTATTTTTAAATTATCACGGCGTATGAAGCTGTGTTTCCGTGTACGGACCTATTTCCGTTTCCTGTATTCCTCCGCTTCCGGAAT (double strand) [dotI promoter probe] | binds
2 | TTCTATAAATAAGAAATAAAGAATTTATTAATGCGTATAGTGCACAGCAAATATTATAAATTAATAAAGGTTGGTTAAAGGTTTGTTTTACAAGTATATGAAATGAATTAAAATTTTTTAATTTTATTTTTACGGTGTAAGCTTGTGATAAATAAAAATTAATAGCTAGAAAACTTATTTAAAACTTTTTAGTCTAATAGCATATTAAATTAAATTGAGCTTTATTATTTATAGCGAAATATATAACACTCGCTGAAACTTGGTTGATTTTTAATAATCAAGATAATAAAGGAAAAGGAT (double strand) [PDC promoter probe] | binds
